Kd, dH and stoichiometry N data for 2 substances are collected here from article PMC6598250.

The target in the assay is unfolded precursor form of maltose binding protein (preMBP) (E. coli). The experiment in a line: ITC; 120 uM SecB or SecB_(T10A) titrated into 20 uM preMBP; 25 °C; KPB buffer pH 7.4, 100 mM; MicroCal PEAQ-ITC; triplicate.

Turning to “SecB chaperone, wild type (from UniProt P0AG86 1-153) (natural protein)”, the Kd – broadly, the constant that tells how readily two partners part at equilibrium – came out at 61.7 µM; the dH was -1.48 kcal/mol; the stoichiometry N (in general, the number of molecules, sites or subunits per partner or assembly) amounted to 3.08.

As to “SecB_(T10A) (from UniProt P0AG86 1-153) (natural protein)”, the equilibrium dissociation constant (Kd) is 5.2 µM, the dH is -1.99 kcal/mol and the stoichiometry N turned out to be 4.99.
